Measured values published in US20220251222A1 (Johns Hopkins, published 2022).

Columns and labels:
[1] = target: T1, IL-8RB expressed on lentivirally transduced HEK 293T cells (UniProt P25025 1-360, limits assumed); assay: competition with 400 nM His-tagged IL-8 on IL-6Rα-/IL-8R+ HEK 293T cells, flow cytometry
T1 construct: whole, on cells; also called IL-8R^+ cells; IL-6Rα^-/IL-8R^+ HEK 293T cells
T1 sequence (looked up): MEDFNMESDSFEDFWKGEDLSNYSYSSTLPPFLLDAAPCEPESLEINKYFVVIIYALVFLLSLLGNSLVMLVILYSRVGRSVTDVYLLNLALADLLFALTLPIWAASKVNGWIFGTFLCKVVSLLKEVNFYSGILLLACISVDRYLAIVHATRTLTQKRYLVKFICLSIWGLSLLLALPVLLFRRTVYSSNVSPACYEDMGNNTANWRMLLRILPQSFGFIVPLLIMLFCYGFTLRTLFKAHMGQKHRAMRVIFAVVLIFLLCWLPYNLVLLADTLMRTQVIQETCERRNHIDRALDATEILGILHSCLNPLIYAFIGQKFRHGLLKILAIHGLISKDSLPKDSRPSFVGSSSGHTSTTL
Experimental: IL-6Rα⁺/IL-8R⁻ and IL-6Rα⁻/IL-8R⁺ HEK 293T cells were cultured as previously described, and were trypsinized, resuspended in PBSA, and aliquoted into 96-well plates (2×10⁵ cells per well). IL-6Rα⁺/IL-8R⁻ 293T cells were incubated with titrations of various monoclonal or bispecific antibodies in the presence of saturating concentration of biotinylated IL-6 (100 nM) (Acro Biosystem, cat #: IL6-H8218-25UG) for 2 hr at 4° C. with rotation. Cells were then washed and incubated with 1:200 dilution of Alexa Fluor 647-conjugated streptavidin (Fisher Scientific, cat #: S21374) in PBSA for 15 min at 4° C. After a final wash, cells were resuspended in PBSA and analyzed on a CytoFLEX flow cytometer (Beckman Coulter). Curves were fitted to a first-order logistic model and IC₅₀ values were calculated using GraphPad Prism data analysis software. Mean fluorescence intensity (MFI) of unstimulated cells was subtracted. Similarly, IL-6Rα⁻/IL-8R⁺ 293T cells were incubated with titrations of various monoclonal or bispecific antibodies with saturating concentration of His-tagged IL-8 (400 nM) (Sino Biological, cat #: 10098-H08Y-100) for 2 hr at 4° C. with rotation. […] After a final wash, cells were resuspended in PBSA and analyzed on a CytoFLEX flow cytometer (Beckman Coulter). Curves were fitted to a first-order logistic model and IC₅₀ values were calculated using GraphPad Prism data analysis software. […]

[2] = target: T1, IL-8RB expressed on lentivirally …; assay: flow cytometry titration on IL-6Rα+/IL-8R+ HEK 293T cells; IL-6Rα+/IL-8R+ 293T cells (FIG. 7C)
Experimental: (§1) HEK 293T cells were cultured in Dulbecco's modified Eagle's medium (DMEM, Mediatech) supplemented with 10% (Hyclone), 2 mM L-glutamine and 100 U/mL penicillin-streptomycin (Gibco). For surface binding assays, IL-6Rα⁺/IL-8R⁻, IL-6Rα⁻/IL-8R⁺, IL-6Rα⁺/IL-8R⁺, and […] HEK 293T cells were trypsinized for detachment, resuspended in PBSA, and then aliquoted into 96-well plates (1×10⁵ cells per well). Cells were incubated with titrations of various monoclonal or bispecific antibodies for 2 hr at 4° C. with rotation. Cells were then washed and incubated with a 1:50 dilution of fluorescein isothiocyanate (FITC)-conjugated anti-human IgG1 antibody (Sigma-Aldrich, Clone 8c/6-39) in PBSA for 15 min at 4° C. After a final wash, cells were resuspended in PBSA and analyzed on a CytoFLEX flow cytometer (Beckman Coulter). Binding isotherms were fitted to a first-order logistic model and KD values were calculated using GraphPad Prism data analysis software. Mean fluorescence intensity (MFI) of unstimulated cells was subtracted. […]
(§2) To determine whether engineered bispecific binding agents BS1 and BS2 specifically engage target antigens in a physiologically relevant context, antibody binding to IL-6Rα⁺/IL-8R⁻, IL-6Rα⁻/IL-8R⁺, IL-6Rα⁺/IL-8R⁺, and IL-6Rα⁻/IL-8R⁻ lentivirally transduced HEK 293T cells was measured via flow cytometry. […]

[3] = target: T1, IL-8RB expressed on lentivirally …; assay: flow cytometry binding titration on IL-6R-/IL-8R+ HEK 293T cells, detected with FITC anti-human IgG1
Experimental: as §1, §2

[4] = target: T2, human IL-6Rα extracellular domain (ECD), residues 89-303 of the mature protein, with C-terminal biotin … (human, UniProt P08887 108-322, biotinylated with BirA ligase on the biotin acceptor peptide); assay: equilibrium bio-layer interferometry titration, biotinylated human IL-6Rα ECD immobilized on streptavidin tips
T2 construct: range 89-303; The range 89-303 counts on the mature protein, not on the precursor; Any linkers between the ECD, BAP and His tag are not described; also called IL-6Rα ECD; recombinant IL-6Rα
T2 sequence: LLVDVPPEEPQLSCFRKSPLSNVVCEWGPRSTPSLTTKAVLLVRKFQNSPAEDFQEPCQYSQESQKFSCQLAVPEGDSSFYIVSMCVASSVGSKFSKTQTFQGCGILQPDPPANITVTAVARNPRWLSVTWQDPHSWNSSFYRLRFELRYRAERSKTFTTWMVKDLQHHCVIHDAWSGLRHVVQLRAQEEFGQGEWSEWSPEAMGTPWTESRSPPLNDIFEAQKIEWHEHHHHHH
Experimental: Biotinylated human IL-6Rα ECD was immobilized to streptavidin-coated tips for analysis on an Octet® Red96 BLI instrument (ForteBio). Less than 5 signal units (nm) of receptor was immobilized to minimize mass transfer effects. Tips were exposed to serial dilutions of the anti-IL-6R antibody tocilizumab, the anti-IL-8R antibody 10H2, BS1, or BS2 in a 96-well plate for 300 s and dissociation was measured for 600 s. Surface regeneration for all interactions was conducted using 15 s exposure to 0.1 M glycine pH 3.0. Experiments were carried out in PBSA (phosphate-buffered saline [PBS] pH 7.3 plus 0.1% bovine serum albumin [BSA, Thermo]) at 25° C. Data was visualized and processed using the Octet® Data Analysis software version 7.1 (ForteBio). Equilibrium titration curve fitting and equilibrium dissociation constant (KD) value determination was implemented in GraphPad Prism software using a first-order logistic model. Experiments were reproduced two times with similar results.
To confirm functionality of our bispecific agents, antibodies were titrated against recombinant IL-6Rα via BLI. […] Moreover, both tocilizumab-containing engineered bispecific binding agents also bound IL-6Rα (FIG. 5).

[5] = target: T3, IL-6Rα expressed on lentivirally transduced HEK 293T cells (UniProt P08887 20-468, limits assumed); assay: flow cytometry binding titration on IL-6R+/IL-8R- HEK 293T cells, detected with FITC anti-human IgG1
T3 construct: whole, on cells; also called IL-6Rα^+ cells; IL-6Rα^+/IL-8R^- HEK 293T cells
T3 sequence (looked up): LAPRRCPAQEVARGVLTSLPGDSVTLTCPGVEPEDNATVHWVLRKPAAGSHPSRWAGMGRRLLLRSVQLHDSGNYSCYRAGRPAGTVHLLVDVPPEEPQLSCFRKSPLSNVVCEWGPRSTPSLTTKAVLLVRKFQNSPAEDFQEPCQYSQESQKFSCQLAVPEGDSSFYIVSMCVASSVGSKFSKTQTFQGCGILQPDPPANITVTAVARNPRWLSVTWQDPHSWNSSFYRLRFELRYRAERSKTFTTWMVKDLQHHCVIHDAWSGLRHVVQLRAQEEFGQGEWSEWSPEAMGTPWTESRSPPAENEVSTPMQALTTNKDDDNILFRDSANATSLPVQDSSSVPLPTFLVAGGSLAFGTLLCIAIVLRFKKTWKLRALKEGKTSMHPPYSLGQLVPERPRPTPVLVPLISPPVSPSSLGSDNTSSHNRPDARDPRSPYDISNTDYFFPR
Experimental: as §1, §2

B1: 10H2, recombinant monoclonal hIgG1 (anti-IL-8RB) (antibody, V domains shown)
VH: EVQLVETGGRLVQPKGSLKLSCAVSGITFKTNAMNWVRQAPGKGLEWVARIRTKSYNYATYYADSVKDRFTISRDDSQSILYLQMNNLKTEDTAMYHCVREGRWGQGTLVTVSA
VL: QAVVTQESALTTSPGETVTLTCRSSTGAVTTSNYANWVQEKPDHLFTGLIGGTNNRPPGVPARFSGSLIGDKAALTITGAQIEDEAIYFCALWYSNHLVFGGGTKLTVL
notes: also called anti-IL-8RB antibody
With B1 the IC50 [1] was 22 nM, the Kd [2] was 4.1 nM and the “EC50 (read off the curve)” value [3] was roughly 4 nM. B1: no binding (tested: about 5e-7 M) [4]; no binding (tested: 1e-6 M) [5].
